Laboratory results: patent US20040121957A1

Molecular target: ΔNEG2-CFTR (CFTR with amino acids 817-838 deleted) (human), P13569
Assay: cell-based or functional assay

ΔNEG2-CFTR (CFTR with amino acids 817-838 deleted) (human), P13569, sequence (P13569 other isoform, or with tags, fused parts or gaps mutant): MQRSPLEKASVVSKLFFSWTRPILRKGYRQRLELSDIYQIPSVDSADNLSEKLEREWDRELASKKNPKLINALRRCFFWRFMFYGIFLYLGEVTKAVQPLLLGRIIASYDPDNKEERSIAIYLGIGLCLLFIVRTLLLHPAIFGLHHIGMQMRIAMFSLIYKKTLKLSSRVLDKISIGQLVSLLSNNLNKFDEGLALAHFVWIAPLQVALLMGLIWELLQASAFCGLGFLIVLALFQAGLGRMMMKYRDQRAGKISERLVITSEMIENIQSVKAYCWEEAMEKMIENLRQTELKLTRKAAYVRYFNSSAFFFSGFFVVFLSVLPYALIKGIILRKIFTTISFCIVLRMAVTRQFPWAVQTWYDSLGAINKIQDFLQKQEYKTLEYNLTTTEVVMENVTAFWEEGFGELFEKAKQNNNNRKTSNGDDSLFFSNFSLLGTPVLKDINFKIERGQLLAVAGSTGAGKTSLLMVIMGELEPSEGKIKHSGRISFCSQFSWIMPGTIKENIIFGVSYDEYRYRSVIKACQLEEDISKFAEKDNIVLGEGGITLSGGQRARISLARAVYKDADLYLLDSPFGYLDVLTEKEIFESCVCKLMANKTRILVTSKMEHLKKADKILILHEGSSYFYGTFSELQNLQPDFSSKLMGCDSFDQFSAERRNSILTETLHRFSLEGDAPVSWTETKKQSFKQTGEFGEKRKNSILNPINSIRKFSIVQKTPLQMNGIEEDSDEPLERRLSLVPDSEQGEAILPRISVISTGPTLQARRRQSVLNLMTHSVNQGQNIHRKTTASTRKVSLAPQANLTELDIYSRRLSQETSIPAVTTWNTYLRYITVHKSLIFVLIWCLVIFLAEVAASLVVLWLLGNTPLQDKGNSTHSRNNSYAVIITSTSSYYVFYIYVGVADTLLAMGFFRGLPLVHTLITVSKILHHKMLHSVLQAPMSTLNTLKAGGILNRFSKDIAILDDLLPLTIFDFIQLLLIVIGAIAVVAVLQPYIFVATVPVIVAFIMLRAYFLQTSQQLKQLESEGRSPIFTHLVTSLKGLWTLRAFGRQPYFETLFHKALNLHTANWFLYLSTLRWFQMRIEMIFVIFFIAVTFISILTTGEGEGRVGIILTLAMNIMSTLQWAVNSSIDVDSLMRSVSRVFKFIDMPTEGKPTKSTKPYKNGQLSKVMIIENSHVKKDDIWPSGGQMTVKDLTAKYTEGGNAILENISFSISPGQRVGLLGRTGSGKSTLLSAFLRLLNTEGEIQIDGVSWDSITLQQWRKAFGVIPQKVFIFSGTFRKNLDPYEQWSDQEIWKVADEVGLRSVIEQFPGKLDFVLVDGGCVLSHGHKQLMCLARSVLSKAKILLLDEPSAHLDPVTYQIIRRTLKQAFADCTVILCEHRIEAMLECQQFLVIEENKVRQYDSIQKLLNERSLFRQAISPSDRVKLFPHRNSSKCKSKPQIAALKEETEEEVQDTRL

In the case of GLEISEEINEEDLKECFFDDME [synthetic NEG2 peptide (22 amino acid peptide corresponding to CFTR amino acids 817-838)], the stimulation of single channel (peptide concentration) is reported as 0.44 µM.
